Experimental data as given in the supplement of paper PMC7877785.
± gives the uncertainty stated by the source.

Assay: self-splicing fitness, log relative to wild type (ln ratio); higher = more splicing; Tetrahymena group I intron in knt gene, E. coli kanamycin selection, DiMSum; sequences stand for … in CUCUCU…GGAGGGAAAAGUUAUCAGGCAUGCACCUGGUAGCUAGUCUUUAAACCAAUAGAUUGCAUCGGUUUAAAAGGCAAGACCGUCAAAUUGCGGGAAAGGGGUCAACAGCCGUUCAGUACCAAGUCUCAGGGGAAACUUUGAGAUGGCCUUGCAAAGGGUAUGGUAAUAAGCUGACGGACAUGGUCCUAACCACGCAGCCAAGUCCUAAGUCAACAGAUCUUCUGUUGAUAUGGAUGCAGUUCACAGACUAAAUGUCGGUCGGGGAAGAUGUAUUCUUCUCAUAAGAUAUAGUCGGACCUCUCCUUAAUGGGAGCUAGCGGAUGAAGUGAUGCAACACUGGAGCCGCUGGGAACUAAUUUGUAUGCGAAAGUAUAUUGAUUAGUUUUGGAGUACUCGUGGUCG
Outline: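 Colonies from six replicate transformations of E. coli BL21(DE3) were pooled and amplicon-sequenced on an Illumina HiSeq 2500. The library placed an intron with all eight P1ex-region nucleotides randomised inside the knt kanamycin-resistance gene on pET-22b(+), and cells grew overnight at 37°C or 30°C on LB agar with or without 25 μg/mL kanamycin (plus 100 μg/mL carbenicillin, 50 μM IPTG, 0.2% rhamnose). Fitness is the DiMSum error-weighted combination of wild-type-normalised replicate fold changes, kanamycin versus none.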

| Sequence | self-splicing fitness (ln) (30 °C) | self-splicing fitness (ln) (37 °C) |
| --- | --- | --- |
| GGCAAGCAAUAUUACGUAGA | 0.226 ± 0.077 | 0.582 ± 0.11 |
| GAUUAGCAAUAUUACGCUUG | -0.829 ± 0.079 | -0.445 ± 0.093 |
| CUUUAGCAAUAUUACGUUAG | -2.49 ± 0.18 | -2.32 ± 0.26 |
| UACAAGCAAUAUUACGAGGC | -2.4 ± 0.3 | -1.84 ± 0.28 |
| AGGGAGCAAUAUUACGGCCU | -2.43 ± 0.22 | -1.41 ± 0.24 |
| UGAGAGCAAUAUUACGUUGU | -3.89 ± 0.19 | -2.91 ± 0.23 |
| GCCUAGCAAUAUUACGUUCA | -1.37 ± 0.16 | -1.12 ± 0.17 |
| GGAAAGCAAUAUUACGAUGC | -0.209 ± 0.087 | -0.26 ± 0.12 |
| AUAUAGCAAUAUUACGUCGU | -1.12 ± 0.12 | -0.541 ± 0.18 |
| CACGAGCAAUAUUACGUAAG | -3.62 ± 0.14 | -1.82 ± 0.11 |
| AGUGAGCAAUAUUACGUCUG | -2.84 ± 0.34 | -2.07 ± 0.38 |
| AUUAAGCAAUAUUACGACAU | 0.191 ± 0.012 | 0.193 ± 0.032 |
| GCUUAGCAAUAUUACGUUAG | -1.56 ± 0.13 | -1.1 ± 0.15 |
| UCUCAGCAAUAUUACGUAAG | -2.07 ± 0.12 | -1.17 ± 0.13 |
| UGACAGCAAUAUUACGUUCG | -0.885 ± 0.068 | -0.194 ± 0.075 |
| CACAAGCAAUAUUACGCUGC | -5.23 ± 0.32 | -2.87 ± 0.21 |
| GCGAAGCAAUAUUACGCAUU | -2.56 ± 0.17 | -2.15 ± 0.19 |
| GCUAAGCAAUAUUACGAGGA | -1.73 ± 0.11 | -0.693 ± 0.12 |
| CUAUAGCAAUAUUACGGGCG | -0.345 ± 0.084 | -0.342 ± 0.098 |
| GUUGAGCAAUAUUACGCGUG | -3.36 ± 0.15 | -2.66 ± 0.21 |
| GCGCAGCAAUAUUACGGUCU | -0.494 ± 0.075 | 0.0551 ± 0.095 |

| Sequence | self-splicing fitness (ln) (30 °C) | self-splicing fitness (ln) (37 °C) |
| --- | --- | --- |
| GAUAAGCAAUAUUACGAUAC | -1.52 ± 0.18 | -1.63 ± 0.27 |
| CGGAAGCAAUAUUACGCGCA | -1.9 ± 0.11 | -1.08 ± 0.094 |
| GGAAAGCAAUAUUACGGCCA | -0.368 ± 0.081 | -0.0522 ± 0.1 |
| GACAAGCAAUAUUACGACCC | 0.926 ± 0.23 | -0.477 ± 0.39 |
| GAGUAGCAAUAUUACGUCGU | -3.35 ± 0.29 | -0.572 ± 0.2 |
| GUCUAGCAAUAUUACGUGGA | -2.12 ± 0.23 | -2.69 ± 0.24 |
| AGACAGCAAUAUUACGUCUC | -2.87 ± 0.19 | -3.53 ± 0.35 |
| CUGGAGCAAUAUUACGGGGA | -3.21 ± 0.28 | -2.39 ± 0.37 |
| UUUGAGCAAUAUUACGCAUU | -2.65 ± 0.27 | -1.09 ± 0.2 |
| CGCGAGCAAUAUUACGCGAG | -3.97 ± 0.37 | -2.01 ± 0.41 |
| AUCGAGCAAUAUUACGCAAU | -2.08 ± 0.21 | -2.75 ± 0.4 |
| AGAGAGCAAUAUUACGAAAA | – | -1.5 ± 0.5 |
| UUAAAGCAAUAUUACGAAUC | -3.58 ± 0.26 | -1.79 ± 0.16 |
| GUGUAGCAAUAUUACGAACU | -1.57 ± 0.25 | -0.299 ± 0.2 |
| GGUAAGCAAUAUUACGAUGG | -3.83 ± 0.39 | -2.64 ± 0.33 |
| AAAUAGCAAUAUUACGCCCG | -0.812 ± 0.19 | 0.00909 ± 0.26 |
| GGACAGCAAUAUUACGCAAG | -1.69 ± 0.11 | -1.41 ± 0.12 |
| CAAGAGCAAUAUUACGGCGU | -3.47 ± 0.34 | -1.92 ± 0.21 |
| CUCAAGCAAUAUUACGUUGU | -3.9 ± 0.36 | -2.89 ± 0.23 |
| AUGAAGCAAUAUUACGCACG | -1.09 ± 0.1 | 0.541 ± 0.14 |
| AUGAAGCAAUAUUACGAGUC | – | -2.69 ± 0.24 |
